Targets include DLG1_2, Q12959; DLG4_2, P78352; FRMPD2_2, Q68DX3; FRMPD3, Q5JV73; HTRA1, Q92743; Inadl_3, Q8NI35; LNX1_2, Q8TBB1; MAST2, Q6P0Q8; PTPN3, P26045; SCRIB_2, Q14160; SNX27, Q96L92.
Experiment in all cases: holdup assay
Set-up in all cases: key: below the threshold = too weak to quantify, mostly under pKd 3.1 to 4
What all share (conditions): plain residues with an end cap or a label only (N-terminal biotin on a linker: ado-ado)

In the next experiment the target is T1, DFNB31_1, Q9P202.
T1 sequence (Q9P202 135-233, limits assumed, looked up): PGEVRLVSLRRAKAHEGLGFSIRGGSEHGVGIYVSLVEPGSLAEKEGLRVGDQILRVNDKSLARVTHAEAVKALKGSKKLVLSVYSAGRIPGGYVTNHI

Another experiment addresses T2, FRMPD1, Q5SYB0.
T2 sequence (Q5SYB0 52-145, limits assumed, looked up): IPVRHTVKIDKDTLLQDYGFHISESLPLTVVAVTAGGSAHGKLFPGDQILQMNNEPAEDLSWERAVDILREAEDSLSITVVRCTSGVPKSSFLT

The next experiment deals with T3, LIN7A, O14910.
T3 sequence (O14910 103-200, limits assumed, looked up): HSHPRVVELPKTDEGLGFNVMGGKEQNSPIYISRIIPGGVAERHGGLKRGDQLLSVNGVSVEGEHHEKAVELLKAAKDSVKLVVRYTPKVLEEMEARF

The target of a further experiment is T4, LIN7B, Q9HAP6.
T4 sequence (Q9HAP6 88-185, limits assumed, looked up): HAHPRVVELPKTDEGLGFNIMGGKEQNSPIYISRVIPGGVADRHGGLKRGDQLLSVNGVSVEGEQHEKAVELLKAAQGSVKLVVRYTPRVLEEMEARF

Another experiment deals with T5, LNX2_2, Q8N448.
T5 sequence (Q8N448 334-432, limits assumed, looked up): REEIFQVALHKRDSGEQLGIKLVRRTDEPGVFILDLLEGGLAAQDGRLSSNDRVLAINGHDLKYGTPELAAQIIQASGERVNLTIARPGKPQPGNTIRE

A further experiment has as its target T6, MPDZ_10, O75970.
T6 sequence (O75970 1624-1722, limits assumed, looked up): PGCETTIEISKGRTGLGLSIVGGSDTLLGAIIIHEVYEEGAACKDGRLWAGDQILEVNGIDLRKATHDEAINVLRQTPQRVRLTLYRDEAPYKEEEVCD

For the next experiment, the target named is T7, NHERF3_4, Q5T2W1.
T7 sequence (Q5T2W1 373-468, limits assumed, looked up): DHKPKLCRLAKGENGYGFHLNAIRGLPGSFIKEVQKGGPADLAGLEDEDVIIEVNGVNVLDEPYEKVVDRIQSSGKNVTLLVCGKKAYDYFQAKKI

A further experiment has as its target T8, PDZD7_3, Q9H5P4.
T8 sequence (Q9H5P4 857-944, limits assumed, looked up): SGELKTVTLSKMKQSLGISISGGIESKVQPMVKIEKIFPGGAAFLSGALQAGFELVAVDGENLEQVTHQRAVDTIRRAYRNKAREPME

Another experiment addresses T9, PDZRN3_1, Q9UPQ7.
T9 sequence (Q9UPQ7 244-349, limits assumed, looked up): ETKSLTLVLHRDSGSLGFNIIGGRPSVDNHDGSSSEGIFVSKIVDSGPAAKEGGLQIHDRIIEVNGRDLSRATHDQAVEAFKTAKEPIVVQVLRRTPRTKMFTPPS

The target in a further experiment is T10, RAPGEF6, Q8TEU7.
T10 sequence (Q8TEU7 525-625, limits assumed, looked up): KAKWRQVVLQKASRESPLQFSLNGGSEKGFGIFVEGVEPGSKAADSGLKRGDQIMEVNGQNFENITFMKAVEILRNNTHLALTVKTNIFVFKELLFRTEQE

A further experiment has as its target T11, SIPA1L2, Q9P2F8.
T11 sequence (Q9P2F8 945-1036, limits assumed, looked up): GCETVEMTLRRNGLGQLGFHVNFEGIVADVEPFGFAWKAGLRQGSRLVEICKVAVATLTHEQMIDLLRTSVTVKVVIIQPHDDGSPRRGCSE

A further experiment concerns the target T12, SYNJ2BP, P57105.
T12 sequence (P57105 8-110, limits assumed, looked up): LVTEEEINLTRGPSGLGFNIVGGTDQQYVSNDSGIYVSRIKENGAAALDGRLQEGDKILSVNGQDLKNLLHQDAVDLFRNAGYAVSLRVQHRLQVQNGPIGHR

The target in the next experiment is T13, TIAM2, Q8IVF5.
T13 sequence (Q8IVF5 885-986, limits assumed, looked up): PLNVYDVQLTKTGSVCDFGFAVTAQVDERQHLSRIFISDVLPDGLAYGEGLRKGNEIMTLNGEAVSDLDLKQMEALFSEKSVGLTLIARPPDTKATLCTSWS

In general, pKd refers to the negative decadic logarithm of the Kd, by convention in mol/L.

Chain of FRMPD2_2, Q68DX3 (Q68DX3 944-1038): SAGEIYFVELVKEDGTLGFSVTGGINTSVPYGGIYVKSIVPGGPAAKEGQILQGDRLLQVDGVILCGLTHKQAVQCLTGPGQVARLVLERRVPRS
Chain of FRMPD3, Q5JV73 (Q5JV73 12-100): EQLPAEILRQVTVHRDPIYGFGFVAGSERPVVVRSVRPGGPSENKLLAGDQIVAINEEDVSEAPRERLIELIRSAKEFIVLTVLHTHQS
Chain of DLG4_2, P78352 (P78352 155-259): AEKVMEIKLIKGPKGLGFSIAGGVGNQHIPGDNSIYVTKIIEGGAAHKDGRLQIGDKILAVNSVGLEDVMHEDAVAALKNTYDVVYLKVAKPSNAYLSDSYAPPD
Chain of HTRA1, Q92743 (Q92743 360-477): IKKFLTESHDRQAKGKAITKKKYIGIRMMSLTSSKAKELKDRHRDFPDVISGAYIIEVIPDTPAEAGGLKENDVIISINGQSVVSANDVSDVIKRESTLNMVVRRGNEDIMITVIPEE
Chain of PTPN3, P26045 (P26045 505-587): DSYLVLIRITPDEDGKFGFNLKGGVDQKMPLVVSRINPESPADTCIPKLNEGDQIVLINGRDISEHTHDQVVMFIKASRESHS
Chain of Inadl_3, Q8NI35 (Q8NI35 359-469): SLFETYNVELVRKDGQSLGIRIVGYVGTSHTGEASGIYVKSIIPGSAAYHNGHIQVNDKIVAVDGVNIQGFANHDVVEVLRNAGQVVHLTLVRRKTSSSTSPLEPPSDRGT
Chain of MAST2, Q6P0Q8 (Q6P0Q8 1099-1202): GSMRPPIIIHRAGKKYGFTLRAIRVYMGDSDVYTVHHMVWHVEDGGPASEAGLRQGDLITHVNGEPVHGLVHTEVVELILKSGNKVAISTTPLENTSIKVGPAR
Chain of LNX1_2, Q8TBB1 (Q8TBB1 371-470): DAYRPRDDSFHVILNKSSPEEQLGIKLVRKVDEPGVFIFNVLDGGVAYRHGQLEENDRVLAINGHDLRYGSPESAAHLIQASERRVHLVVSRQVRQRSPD
Chain of DLG1_2, Q12959 (Q12959 314-412): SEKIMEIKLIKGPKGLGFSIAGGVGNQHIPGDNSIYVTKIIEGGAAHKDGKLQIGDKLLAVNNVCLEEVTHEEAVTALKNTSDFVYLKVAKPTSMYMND
Chain of SCRIB_2, Q14160 (Q14160 857-960): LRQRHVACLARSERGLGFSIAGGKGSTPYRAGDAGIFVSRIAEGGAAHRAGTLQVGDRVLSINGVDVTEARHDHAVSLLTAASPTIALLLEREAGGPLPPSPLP

For the molecule PASAKGPLGV [CLDN19, Q8N6F1], the pKd result was “below the threshold” in the experiment with DFNB31_1, Q9P202; “below the threshold” in the experiment with DLG1_2, Q12959; “below the threshold” in the experiment with DLG4_2, P78352; “below the threshold” with FRMPD1, Q5SYB0; “below the threshold” with FRMPD2_2, Q68DX3; “below the threshold” with FRMPD3, Q5JV73. The pKd result with HTRA1, Q92743 is recorded as “below the threshold”; with Inadl_3, Q8NI35, “below the threshold”; with LIN7A, O14910, “below the threshold”; with LIN7B, Q9HAP6, “below the threshold”; in the experiment with LNX1_2, Q8TBB1, “below the threshold”; with LNX2_2, Q8N448 it was “below the threshold”. The negative logarithm of the Kd (pKd) entry in the experiment with MAST2, Q6P0Q8 is “below the threshold”; with MPDZ_10, O75970, “below the threshold”; with NHERF3_4, Q5T2W1, “below the threshold”; in the experiment with PDZD7_3, Q9H5P4, “below the threshold”; in the experiment with PDZRN3_1, Q9UPQ7, “below the threshold”; in the experiment with PTPN3, P26045, “below the threshold”. Further, the pKd result with RAPGEF6, Q8TEU7 is on record as “below the threshold”; with SCRIB_2, Q14160, “below the threshold”; in the experiment with SIPA1L2, Q9P2F8, “below the threshold”; with SNX27, Q96L92, “below the threshold”; in the experiment with SYNJ2BP, P57105, “below the threshold”; in the experiment with TIAM2, Q8IVF5, “below the threshold”.
For the molecule RELVMRVTTV [MARCHF4, Q9P2E8], the pKd with DFNB31_1, Q9P202 is 3.97; in the experiment with DLG1_2, Q12959 it was 5.41; in the experiment with DLG4_2, P78352, 5.28; in the experiment with FRMPD1, Q5SYB0, “below the threshold”; with FRMPD2_2, Q68DX3, 4.06; with FRMPD3, Q5JV73, “below the threshold”. Moreover, the pKd in the experiment with HTRA1, Q92743 turned out to be 4.96; with Inadl_3, Q8NI35, 4.03; with LIN7A, O14910, 3.7; with LIN7B, Q9HAP6, 4.2; with LNX1_2, Q8TBB1 it was 4.58; with LNX2_2, Q8N448, 5.27. Moreover, the pKd with MAST2, Q6P0Q8 worked out at 5.29; in the experiment with MPDZ_10, O75970 it was 4.35; in the experiment with NHERF3_4, Q5T2W1, 3.58; in the experiment with PDZD7_3, Q9H5P4 it was 5.28; with PDZRN3_1, Q9UPQ7, 3.77; in the experiment with PTPN3, P26045 it was 4.54. Also, the pKd entry is “below the threshold” with RAPGEF6, Q8TEU7; 4.28 with SCRIB_2, Q14160; “below the threshold” with SIPA1L2, Q9P2F8; 5.48 in the experiment with SNX27, Q96L92; 4.82 with SYNJ2BP, P57105; 3.76 with TIAM2, Q8IVF5.
Take DSATVRTYSC [PPFIA1, Q13136]: the pKd is 3.47 with DFNB31_1, Q9P202; “below the threshold” in the experiment with DLG1_2, Q12959; “below the threshold” with DLG4_2, P78352; “below the threshold” in the experiment with FRMPD1, Q5SYB0; “below the threshold” with FRMPD2_2, Q68DX3; “below the threshold” in the experiment with FRMPD3, Q5JV73. For the same molecule, the pKd with HTRA1, Q92743 is 4.27; in the experiment with Inadl_3, Q8NI35 it was “below the threshold”; with LIN7A, O14910, “below the threshold”; with LIN7B, Q9HAP6 it was 3.7; with LNX1_2, Q8TBB1 it was 4.83; with LNX2_2, Q8N448, 4.02. Further, the pKd with MAST2, Q6P0Q8 is 3.98; with MPDZ_10, O75970 it was “below the threshold”; in the experiment with NHERF3_4, Q5T2W1, “below the threshold”; in the experiment with PDZD7_3, Q9H5P4 it was “below the threshold”; in the experiment with PDZRN3_1, Q9UPQ7, “below the threshold”; with PTPN3, P26045, 3.68. The pKd entry with RAPGEF6, Q8TEU7 is “below the threshold”; with SCRIB_2, Q14160, “below the threshold”; in the experiment with SIPA1L2, Q9P2F8 it was “below the threshold”; with SNX27, Q96L92, “below the threshold”; in the experiment with SYNJ2BP, P57105, “below the threshold”; in the experiment with TIAM2, Q8IVF5, 4.19.
Regarding QFTLRHWLKV [SLC6A3, Q01959], the pKd was 3.47 in the experiment with DFNB31_1, Q9P202; “below the threshold” in the experiment with DLG1_2, Q12959; “below the threshold” in the experiment with DLG4_2, P78352; 3.57 with FRMPD1, Q5SYB0; “below the threshold” with FRMPD2_2, Q68DX3; “below the threshold” in the experiment with FRMPD3, Q5JV73. Also, the pKd was 4.45 with HTRA1, Q92743; “below the threshold” with Inadl_3, Q8NI35; “below the threshold” in the experiment with LIN7A, O14910; “below the threshold” with LIN7B, Q9HAP6; 3.84 with LNX1_2, Q8TBB1; 4.84 with LNX2_2, Q8N448. For the same molecule, the pKd in the experiment with MAST2, Q6P0Q8 was 4.82; with MPDZ_10, O75970, “below the threshold”; in the experiment with NHERF3_4, Q5T2W1 it was 3.74; with PDZD7_3, Q9H5P4, “below the threshold”; in the experiment with PDZRN3_1, Q9UPQ7 it was “below the threshold”; in the experiment with PTPN3, P26045, “below the threshold”. In addition, the pKd entry was “below the threshold” with RAPGEF6, Q8TEU7; “below the threshold” with SCRIB_2, Q14160; 3.89 with SIPA1L2, Q9P2F8; 3.76 with SNX27, Q96L92; “below the threshold” with SYNJ2BP, P57105; 4.46 in the experiment with TIAM2, Q8IVF5.

(Values after publication PMC9482650, “Quantitative fragmentomics allow affinity mapping of interactomes” (Nature Communications, 2022).)
